# Experimental data: patent US5827734
# Target: murine MBP::ob fusion protein (+Gln), construct pCZR90 (mouse)
substance,measurement,value
Bovine Factor Xa (from UniProt P00743) (enzyme),Factor Xa cleavage of the MBP::ob fusion protein,9%
